From patent US20240158479A1

How the values were obtained:
Assay in all cases: cell-based or functional assay
[1] = target: Alpha spike (B.1.1.7) on pseudovirus (SARS-CoV-2)
[2] = target: Beta spike (B.1.351) on pseudovirus (SARS-CoV-2)
[3] = target: Delta spike (B.1.617.2) on pseudovirus (SARS-CoV-2)
[4] = target: Gamma spike (P.1) on pseudovirus (SARS-CoV-2)
[5] = target: Omicron BA.1 spike on pseudovirus (SARS-CoV-2)
[6] = target: Omicron BA.2 spike on pseudovirus (SARS-CoV-2)
[7] = target: Omicron BA.2.12.1 spike on pseudovirus (SARS-CoV-2)
[8] = target: Omicron BA.2.75 spike on pseudovirus (SARS-CoV-2)
[9] = target: Omicron BA.4.6 spike on pseudovirus (SARS-CoV-2)
[10] = target: Omicron BA.4/5 spike on pseudovirus (SARS-CoV-2)
[11] = target: Omicron BQ.1.1 spike on pseudovirus (SARS-CoV-2)

Substance	IC50, pseudovirus neutralization [1] [µg/mL]	IC50, pseudovirus neutralization [2] [µg/mL]	IC50, pseudovirus neutralization [3] [µg/mL]	IC50, pseudovirus neutralization [4] [µg/mL]	IC50, pseudovirus neutralization [5] [µg/mL]	IC50, pseudovirus neutralization [6] [µg/mL]	IC50, pseudovirus neutralization [7] [µg/mL]	IC50, pseudovirus neutralization [8] [µg/mL]	IC50, pseudovirus neutralization [9] [µg/mL]	IC50, pseudovirus neutralization [10] [µg/mL]	IC50, pseudovirus neutralization [11] [µg/mL]
Imdevimab (antibody)	0.0028	0.0028	0.0035	0.0019	> 5	0.51	0.1	> 5	0.18	0.32	> 5
Casirivimab (antibody)	0.0052	0.094	0.0027	0.18	> 5	> 5	> 5	0.44	> 5	> 5	> 5
Tixagevimab (antibody)	0.0017	0.0054	0.0008	0.006	0.14	> 5	0.56	0.11	> 5	> 5	> 5
Cilgavimab (antibody)	0.01	0.003	0.018	0.005	0.21	0.0091	0.019	0.055	> 5	0.018	> 5
Bamlanivimab (antibody)	0.0034	0.21	0.59	1.4	> 5	> 5	> 5	> 5	> 5	> 5	> 5
Etesevimab (antibody)	0.1	> 5	0.0058	> 5	> 5	> 5	> 5	> 5	> 5	> 5	> 5
Bebtelovimab (antibody)	0.002	0.0009	0.0015	0.0017	0.0023	0.0018	0.0023	0.0033	0.0013	0.0014	> 5
